Patent US20230192801A1

Target: membrane-associated human IR-A (plasma membranes of BHK cells stably transfected with human IR-A) (human) (UniProt P06213)
Experiment: competition SPA, displacement of [125I-A14Y]-human insulin from membrane-associated human IR-A; affinity relative to human insulin standard

Row | hIRA mem (% rel to HI), relative binding affinity | Substance
1 | 35.4 % rel to HI | A9E, B3E, B27E, B28E, desB30 human insulin (ligand)
2 | 55.8 % rel to HI | A9E, B3E, B26E, desB30 human insulin (ligand)
